Experimental data from publication doi:10.1101/2024.12.30.630799.

Biological target: BE-eRNP adenine base editor: bipartite NLS, TadA (ABE8.20-m variant), 32-amino acid glycine/serine-rich linker, S. pyogenes nCas9 (D10A, C80A), bipartite NLS, complexed with sgRNA (Escherichia coli | Streptococcus pyogenes)
Experiment: not stated; oligomeric state of the purified eRNPs (protein combined with sgRNA); the method stands only in Supp Figures 1-3

stoichiometry N: 2
Substance: BE-eRNP adenine base editor: bipartite NLS, TadA (ABE8.20-m variant), 32-amino acid glycine/serine-rich linker, S. pyogenes nCas9 (D10A, C80A), bipartite NLS, complexed with sgRNA (enzyme)
